One data set has as its target T1, hCPA4 (Homo sapiens, UniProt Q9UI42).
T1 sequence (Q9UI42 114-421): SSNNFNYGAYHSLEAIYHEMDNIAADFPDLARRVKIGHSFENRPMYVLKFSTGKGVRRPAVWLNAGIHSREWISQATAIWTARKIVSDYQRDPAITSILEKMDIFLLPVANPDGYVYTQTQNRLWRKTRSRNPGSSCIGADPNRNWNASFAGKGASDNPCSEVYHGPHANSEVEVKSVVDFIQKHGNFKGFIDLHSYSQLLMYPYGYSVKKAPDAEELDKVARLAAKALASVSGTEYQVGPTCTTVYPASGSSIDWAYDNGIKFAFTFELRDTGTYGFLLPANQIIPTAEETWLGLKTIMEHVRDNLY
Briefly: Ki determination, tight-binding inhibition of metallocarboxypeptidase. As to conditions: tight-binding equation fit, equilibrium conditions; substrate AAFP 0.1mM, 20mM Tris-HCl pH 7.5, 500mM NaCl; preincubation 15 min; 37 °C; means (n = 3) ± SD. The data set is classed as biochemical. As for the experimental part: Inhibitory activities against CPA- and CPB-type forms (bovine and human variants of CPA1, CPA2, CPA4, CPB1, and TAFI) were assayed for all extracts, subject to the experimental conditions that enzyme (E), substrate (S) and inhibitor (I) concentrations as well as the [I]/[E] ratio and preincubation time followed the requirements for tight-binding inhibitor assays. Similar approaches were followed to measure the activities of proteases of different catalytic types, like pepsin, papain, trypsin and subtilisin [45, 46, 47, 48]. All assays were performed in triplicate at 25 °C in a multiplexed manner. For 96-well assays an iEMS spectrophotometer reader/dispenser FM (Labsystems, Finland) was used with a final reaction volume of 250 μL. For cuvette assays, a Cary 400 Bio spectrophotometer (Varian Inc., Palo Alto, CA, USA) spectrophotometer was used with a final reaction volume of 1 ml. The reactions were followed at 5 s intervals for 5 min and recorded as initial velocities. In the protease inhibition assays, mixtures of activity buffer, biological sample and enzyme were preincubated at 25 °C for 10min, before substrate addition. The assay conditions were as follows: for CPA-like enzymes, 7.0nM CPA, 0.1mM AAFP substrate in 20mM Tris-HCl pH 7.5, 500mMNaCl, 1% v/v dimethyl sulfoxide (DMSO), 0.05% w/v BRIJ-35 was used. For CPB-like enzymes, CPB 3.0nM CPB, 0.1mM AAFA substrate and activity buffer of 20 mM Tris-HCl pH [50].
The Ki values of natural and recombinant NvCI against bCPA1, hCPA1, hCPA2, rat CPA3, hCPA4, hCPB1, bTAFI, hTAFI, hCPD and hCPZ were determined by measuring the enzymatic residual activity (Vi/V0 = a) at different inhibitor concentrations and using a fixed enzyme and substrate concentrations as described above, where vi and v0 are the fraction of enzymatic activity in the presence and absence of inhibitor, respectively, in terms of initial velocities. The determination of Ki values was carried out on equilibrium conditions ([E0]/Ki ≤ 10), using a previously determined preincubation time of 15 min, required to establish enzyme-inhibitor equilibrium. Working temperature was 37 °C. The best estimates of Ki values were obtained by fitting the experimental data to the equation for tight-binding inhibitors by non-linear regression using the GraphPad Prisma 5 software (GraphPad Software, Inc., San Diego, CA, USA) at p < 0.05. The real Ki values against each of these A/B-type MCPs were calculated according to the equation described by Morrison and Copeland [19, 20].

For the next data set, the system named is HepG2 cells. Briefly: Cytotoxicity, XTT assay. The data set is classed as cell-based, human. The settings on record: 72 h incubation, 2 to 250 µg/ml, three independent experiments. On the procedure:
Cytotoxicity effect of NvCI was tested in a cell culture system using the human hepatocyte cell line HepG2 (American Type Culture Collection (ATCC)). The cells were grown in Dulbecco’s modified Eagle’s medium (DMEM) medium supplemented with 10% (v/v) heat inactivated fetal bovine serum, 2 mM glutamine (Life Technologies Inc.), in a highly humidified atmosphere of 90% air with 10% CO2 at 37 °C. Growth inhibitory effect was measured by the microculture tetrazolium [2,3-bis-(2-methoxy-4-nitro-5-sulfophenyl)-2H-tetrazolium-5-carboxanilide, XTT] assay. Following the addition of different inhibitor concentrations to quadruplicate wells, plates were incubated at 37 °C for 72 h. Aliquots of 20 µl of XTT solution were then added to each well. After 3 h, the color formed was quantitated by a spectrophotometric plate reader (PerkinElmer Victor3 V) at a wavelength of 490 nm. Cell viability was expressed as a percentage of the control level.
Cell viability of HepG2 cells after 72 h incubation with NvCI at various concentrations (2 to 250 µg/ml). Untreated cells were used as controls. Data represent the mean and standard error of the mean (SEM) of three independent experiments.
(In general: Tetrazolium assays rely on reduction of a dye to a coloured formazan, in cell work by metabolically active cells.)

Another data set addresses T2, bTAFI (Bos taurus, UniProt Q2KIG3).
T2 sequence (Q2KIG3 115-423): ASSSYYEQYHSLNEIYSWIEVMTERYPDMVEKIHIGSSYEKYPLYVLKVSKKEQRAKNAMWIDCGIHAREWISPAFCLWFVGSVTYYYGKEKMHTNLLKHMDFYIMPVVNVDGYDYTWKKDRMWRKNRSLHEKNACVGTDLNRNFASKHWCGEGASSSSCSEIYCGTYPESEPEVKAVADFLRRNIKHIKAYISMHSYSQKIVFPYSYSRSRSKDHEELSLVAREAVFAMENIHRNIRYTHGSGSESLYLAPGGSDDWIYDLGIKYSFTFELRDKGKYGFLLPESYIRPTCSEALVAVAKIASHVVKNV
Description: Ki determination, tight-binding inhibition of metallocarboxypeptidase. The data set is classed as biochemical, bovine. As to conditions: tight-binding equation fit; substrate AAFA 0.1mM; enzyme-inhibitor mixture not preincubated; 37 °C; means (n = 3) ± SD. On the procedure: Inhibitory activities against CPA- and CPB-type forms (bovine and human variants of CPA1, CPA2, CPA4, CPB1, and TAFI) were assayed for all extracts, subject to the experimental conditions that enzyme (E), substrate (S) and inhibitor (I) concentrations as well as the [I]/[E] ratio and preincubation time followed the requirements for tight-binding inhibitor assays. Similar approaches were followed to measure the activities of proteases of different catalytic types, like pepsin, papain, trypsin and subtilisin [45, 46, 47, 48]. All assays were performed in triplicate at 25 °C in a multiplexed manner. For 96-well assays an iEMS spectrophotometer reader/dispenser FM (Labsystems, Finland) was used with a final reaction volume of 250 μL. […] The reactions were followed at 5 s intervals for 5 min and recorded as initial velocities. […]
The Ki values of natural and recombinant NvCI against bCPA1, hCPA1, hCPA2, rat CPA3, hCPA4, hCPB1, bTAFI, hTAFI, hCPD and hCPZ were determined by measuring the enzymatic residual activity (Vi/V0 = a) at different inhibitor concentrations and using a fixed enzyme and substrate concentrations as described above, where vi and v0 are the fraction of enzymatic activity in the presence and absence of inhibitor, respectively, in terms of initial velocities. […]

No end group written: not given here.

As to “NvCI: 53-residue, three-disulphide proteinaceous metallocarboxypeptidase inhibitor from the marine snail Nerita versicolor; major isoform; UniProt P86912 (FHVPDDRPCINPGRCPLVPDATCTFVCKAADNDFGYECQHVWTFEGQRVGCYA; disulfide (positions not given here); also: three disulphides, pairing not given here; UniProt P86912 1-53, looked up)”, the inhibition constant Ki (in general, a measure of affinity in units of concentration, obtained from inhibition or displacement) in the data set with hCPA4 amounted to 0.0097 ± 0.001 nM; in the data set with bTAFI, 0.121 ± 0.0201 nM. For the same substance, the “cytotoxicity / cell viability” value in the data set with HepG2 cells is reported as “None of the NvCI concentrations assayed exhibited substantial cytotoxicity”.

For the origin of these results see PMC6780499, “Characterization, Recombinant Production and Structure-Function Analysis of NvCI, A Picomolar Metallocarboxypeptidase Inhibitor from the Marine Snail Nerita versicolor” (Marine Drugs, 2019).
